Measured values from the Human Domainome abundance scans (Beltran et al. 2025).

B1: POU domain, class 5, transcription factor 1, residues 134 to 212; numbered along this chain, Q01860 (parent)
chain: EESQDIKALQKELEQFAKLLKQKRITLGYTQADVGLTLGVLFGKVFSQTTICRFEALQLSFKNMCKLRPLLQKWVEEAD

Variants of: B1
Test: abundance fitness (aPCA) (normalised: wild type 0, dead -1); higher = more abundant; growth selection in yeast, the domain comes from the species named
Conditions: Homo sapiens

Abundance fitness: each site, then its substitutions
R53: S -0.467, G -0.421, Q -0.074, T -0.356, P -0.287, D -0.027, H 0.118, K 0.029, A -0.06, E -0.078
Q58: L -0.43, A -0.5, E 0.126, R -0.31, S -0.307, G -0.573, D -0.03, T -0.097, K -0.035, W -0.179
I51: T -0.338, V -0.48, R -0.575, A -0.916, K -0.067, G -0.25
L59: M -0.054, S -0.453, C 0.009, P -0.312, E 0.101, A -0.81, G -0.432, V -0.7, T -0.533, N 0.124, R -0.561
S60: C -0.449, A -0.273
F46: W -0.398, S -0.553, G -0.714, D 0.136, C 0.311, I 0.107, K -0.17, T 0.025, R -0.429, L 0.211, V 0.411, E -0.293, P 0.029, M 0.023, A -0.147
Q48: F -0.343, K 0.079, A 0.162, S 0.208, M 0.348, P 0.097, E 0.484, G 0.24, R 0.126, L -0.435, D 0.164
V45: W -0.143
F54: C -0.5, M -0.535, V -0.625, S -0.562, G -0.695, Q -0.891, P -0.719, A -1.13, W -0.797, R -0.621, T 0.078, E -0.828, K -0.662
L57: Y 0.129, P -0.005, D -0.509, G 0.094, M 0.152, K -0.45, Q 0.106, H 0.298, W -0.355, E -0.694, R -0.234, V -0.066, T -0.344, N 0.261, C 0.035, A -0.58, S -0.306
S47: D -0.323, A -0.379, R -0.469, F -0.094, Q -0.196, K -0.597, T -0.169, L -0.756, E -0.228
A56: N 0.067, H -0.245, T -0.243, R -0.492, K -0.197, C -0.098, P -0.345, E 0.067, W -0.812, V -0.464, Q 0.059, M 0.159, G -0.06, S -0.002, D 0.18
C52: F -0.343, A 0.424, M 0.451, N 0.175, D 0.203, R 0.47, E 0.086, Y -0.604, S 0.341, L -0.07, K 0.356
T50: A -0.316, G -0.601, H 0.017, S -0.542, M -0.27, W -0.43, R -0.756, E 0.231, L -0.626, Q -0.411, C -0.298, V 0.015
T49: W -0.259, Q 0.206, F -0.432, E 0.186, K 0.235, H 0.109, N -0.111, S -0.072, C -0.524, A 0.02, D 0.044, G -0.243, L -0.418, P -0.281, V -0.272
E55: K -0.495, Q -0.498, W -0.555, G -0.66, M -0.907, S -0.418, V -1.04, I -0.365, R -0.607
